Assay results: the supplement of paper PMC10567573

B1: IQUB (parent)
chain: EADYEDDSKIAFLMQLQDIQYLTE

Variants of: B1
Experiment: protein stability index of a GFP-peptide fusion (GPS, HEK-293T) (PSI 1-6); higher = more stable
Settings: c terminus: a fixed tail appended
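Further: lentivirally expressed fusions sorted by FACS into six bins by GFP to DsRed ratio, PSI derived from sequencing read proportions per bin multiplied by bin number.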

Variant	protein stability index
EADYEDDSKIAFLMALQDIQYLTE [Q15A]	2.61
EADYEDDSKIAFLMFLQDIQYLTE [Q15F]	1.77
EADYEDDSKIAFLMILQDIQYLTE [Q15I]	1.98
EADYEDDSKIAFLMQLQDIQYLTN [E24N]	2.61
EADYEDDSKIAFLMQLQDIQYLTI [E24I]	1.67
EADYEDDSKIAFLMQLQDIQYLTR [E24R]	2.07
EADYEDDSKIAFLMQLQDIQYLTV [E24V]	1.81
EADYEDDSKIAFLMQLQDIQYLTA [E24A]	2.91
EADYEDDSKIAFLMQLQDIQYLTK [E24K]	2.73
EADYEDDSKIAFLMQLQDIQYLTL [E24L]	1.56
EADYEDDSKIAFLMQLQDIQYLTD [E24D]	3.32
EADYEDDSKIAFLMQLQDIQYLTW [E24W]	2.45
EADYEDDSKIAFLMQLQDIQYLTQ [E24Q]	2.72
EADYEDDSKIAFLMQLQDIQYLTP [E24P]	3.29
EADYEDDSKIAFLMQLQDIQYLTT [E24T]	2.54
EADYEDDSKIAFAMQLQDIQYLTE [L13A]	4.02
EADYEDDSKIAFGMQLQDIQYLTE [L13G]	4.29
EADYEDDSKIAFHMQLQDIQYLTE [L13H]	4.15
EADYEDDSKIAFPMQLQDIQYLTE [L13P]	4.68
EADYEDDSKIAFSMQLQDIQYLTE [L13S]	4.41
EADYEDDSKIAFMMQLQDIQYLTE [L13M]	3.26
EADYEDDSKIAFTMQLQDIQYLTE [L13T]	4.3
EADYEDDSKIAFNMQLQDIQYLTE [L13N]	4.55
EADYEDDSKIAFIMQLQDIQYLTE [L13I]	2.77

Variant	protein stability index
EADYEDDSKIAFLMQLQDIQYLME [T23M]	1.92
EADYEDDSKIAFLMQLQDIQYLAE [T23A]	2.26
EADYEDDSKIAFLMQLQDIQYLGE [T23G]	3.19
EADYEDDSKIAFLMQLQDIQYLLE [T23L]	2.12
EADYEDDSKIAFLMQLQDIQYLCE [T23C]	1.87
EADYEDDSKIAFLMQLQDIQYLKE [T23K]	3.2
EADYEDDSKITFLMQLQDIQYLTE [A11T]	3.14
EADYEDDSKIYFLMQLQDIQYLTE [A11Y]	2.02
EADYEDDSKIKFLMQLQDIQYLTE [A11K]	3.4
EADYEDDSKILFLMQLQDIQYLTE [A11L]	2.12
EADYEDVSKIAFLMQLQDIQYLTE [D7V]	1.96
EADYEDPSKIAFLMQLQDIQYLTE [D7P]	2.67
EADYEDGSKIAFLMQLQDIQYLTE [D7G]	2.78
EADYEDMSKIAFLMQLQDIQYLTE [D7M]	2.03
EADYEDNSKIAFLMQLQDIQYLTE [D7N]	2.19
EADYEDQSKIAFLMQLQDIQYLTE [D7Q]	3.2
EADYEDISKIAFLMQLQDIQYLTE [D7I]	1.93
EADYEDDSKIAWLMQLQDIQYLTE [F12W]	3.18
EADYEDDSKIATLMQLQDIQYLTE [F12T]	4.94
EADYEDDSKIAALMQLQDIQYLTE [F12A]	3.89
EADYEDDSKIARLMQLQDIQYLTE [F12R]	4.38
EADYEDDSKIANLMQLQDIQYLTE [F12N]	4.33
EADYEDDSKIAGLMQLQDIQYLTE [F12G]	4.66
EADYEDDSKIAQLMQLQDIQYLTE [F12Q]	4.78

Variant	protein stability index
EADYEDDSKIAFLMQLQEIQYLTE [D18E]	2.86
EADYEDDSKIAFLMQLQGIQYLTE [D18G]	2.92
EADYEDDSKIAFLMQLQFIQYLTE [D18F]	2.33
EADYEDDSKIAFLMQLQKIQYLTE [D18K]	2.65
EADYEDDSKIAFLMQLQAIQYLTE [D18A]	1.74
EADYEDDSKIAFLMQLQTIQYLTE [D18T]	1.72
EADYEDDSKIAFLMQLQHIQYLTE [D18H]	2.58
EADYEDDSKIAFLMQLQQIQYLTE [D18Q]	2.68
EADYEDDSKIAFLMQLQLIQYLTE [D18L]	1.69
EAEYEDDSKIAFLMQLQDIQYLTE [D3E]	2.88
EAMYEDDSKIAFLMQLQDIQYLTE [D3M]	2.03
EATYEDDSKIAFLMQLQDIQYLTE [D3T]	2.48
EAFYEDDSKIAFLMQLQDIQYLTE [D3F]	1.62
EAWYEDDSKIAFLMQLQDIQYLTE [D3W]	2.93
EADYEDDSKIAFLMQLQDIWYLTE [Q20W]	2.35
EADYEDDSKIAFLMQLQDIRYLTE [Q20R]	3.67
EADYEDDSKIAFLMQLQDITYLTE [Q20T]	3.05
EADYEDDSKIAFLMQLQDIMYLTE [Q20M]	2.48
EADYEDDSKIAFLMQLQDIPYLTE [Q20P]	3.45
EADYEDDSKIAFLMQLQDIYYLTE [Q20Y]	1.62
ETDYEDDSKIAFLMQLQDIQYLTE [A2T]	2.93
EPDYEDDSKIAFLMQLQDIQYLTE [A2P]	3.73
EYDYEDDSKIAFLMQLQDIQYLTE [A2Y]	2.08
EIDYEDDSKIAFLMQLQDIQYLTE [A2I]	2.99

Variant	protein stability index
ECDYEDDSKIAFLMQLQDIQYLTE [A2C]	2.75
EFDYEDDSKIAFLMQLQDIQYLTE [A2F]	2.58
ELDYEDDSKIAFLMQLQDIQYLTE [A2L]	3.46
EADAEDDSKIAFLMQLQDIQYLTE [Y4A]	3.76
EADHEDDSKIAFLMQLQDIQYLTE [Y4H]	3.35
EADREDDSKIAFLMQLQDIQYLTE [Y4R]	3.42
EADTEDDSKIAFLMQLQDIQYLTE [Y4T]	3.66
EADIEDDSKIAFLMQLQDIQYLTE [Y4I]	3.21
EADLEDDSKIAFLMQLQDIQYLTE [Y4L]	3.51
EADPEDDSKIAFLMQLQDIQYLTE [Y4P]	4.15
EADNEDDSKIAFLMQLQDIQYLTE [Y4N]	4.01
EADWEDDSKIAFLMQLQDIQYLTE [Y4W]	3.42
EADFEDDSKIAFLMQLQDIQYLTE [Y4F]	3.16
EADYEDDSKIAFLMQLQDIQYWTE [L22W]	3.07
EADYEDDSKIAFLMQLQDIQYYTE [L22Y]	3.21
EADYEDDSKIAFLMQLQDIQYQTE [L22Q]	3.83
EADYEDDSKIAFLMQLQDIQYPTE [L22P]	4.51
EADYEDDSKIAFLMQLQDIQYSTE [L22S]	3.99
EADYEDDSKIAFLMQLQDIQYMTE [L22M]	3.4
EADYEDDSKIAFLMQLQDIQYHTE [L22H]	4.07
EADYEDDSKIAFLMQLQDIQYATE [L22A]	4.16
EADYEDDSKIAFLMQLQDIQYFTE [L22F]	2.91
